Experimental findings from paper PMC6718376 are described below.

Experiment [1] addresses respiratory syncytial virus protein F (respiratory syncytial virus) (UniProt P03420). The experiment can be described thus: plasmonic light-scattering biosensor array (localised gold nanoparticle plasmon); Fab assay: RSVF immobilised on array spots by EDC/NHS coupling, BSA reference spots and BSA blocking; NISTmAb injected at 1.56, 3.23 and 6.25 nM in PBS; global fit to the Langmuir 1:1 model.

For experiment [2], the target named is Pierce recombinant protein A/G. Briefly: plasmonic light-scattering biosensor array (localised gold nanoparticle plasmon); Fc assay: protein A/G immobilised on array spots by EDC/NHS coupling, BSA reference spots and BSA blocking; antibody in PBS; NISTmAb kinetics from a global Langmuir fit to low concentrations with ϑm floating; all antibody samples at 100 nM for 300 s, 500 s wash.

Experiment [3] concerns the target NISTmAb (NIST RM 8671), recombinant humanized IgG1κ specific to respiratory syncytial virus protein F (human (humanized IgG1κ)). The experiment can be described thus: plasmonic light-scattering biosensor array (localised gold nanoparticle plasmon); antigen assay: antibody (100 nM) first captured by its Fc on the protein A/G surface, then antigen at 100 nM in PBS injected for 300 s; stoichiometry from ϑm antigen/ϑm Fc normalised for the masses of antigen and intact IgG.

The Kd is the free concentration of one partner at which half of the binding sites on the other are occupied at equilibrium, for simple one-to-one binding. Read a low Kd as tighter binding. One may read the koff as a measure of how fast the partners let go of each other. By kon is commonly meant the second-order rate constant of association.

NISTmAb (NIST RM 8671), recombinant humanized IgG1κ specific to respiratory syncytial virus protein F (human (humanized IgG1κ)), sequence (heavy, as listed by the source, chain 1 of 2): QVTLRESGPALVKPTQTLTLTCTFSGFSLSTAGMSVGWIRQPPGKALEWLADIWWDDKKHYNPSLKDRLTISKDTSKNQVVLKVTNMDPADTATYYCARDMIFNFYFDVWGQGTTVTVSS
NISTmAb (NIST RM 8671), recombinant humanized IgG1κ specific to respiratory syncytial virus protein F (human (humanized IgG1κ)), sequence (light, as listed by the source, chain 2 of 2): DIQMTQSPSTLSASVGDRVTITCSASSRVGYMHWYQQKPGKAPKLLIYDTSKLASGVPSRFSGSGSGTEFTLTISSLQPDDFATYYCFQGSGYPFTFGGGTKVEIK

With “NISTmAb (NIST RM 8671), recombinant humanized IgG1κ specific to respiratory syncytial virus protein F (antibody)”, in experiment [1], the dissociation constant (Kd) amounted to 2.7 nM, the koff was determined as 0.00024 s⁻¹ and the kon came to 89000 M⁻¹ s⁻¹. Further, in experiment [2], the off-rate (koff) was determined as 2e-05 s⁻¹ and the on-rate constant (kon) was 59000 M⁻¹ s⁻¹.

With “respiratory syncytial virus protein F (from UniProt P03420 26-574) (natural protein)”, the stoichiometry N (antigens per antibody) in experiment [3] stood at 1.31.
